Data on 3 sequences can be found in article PMC4324310.

Series [1] relates to T1, RovS (Streptococcus agalactiae NEM316), ORF:d252635c.
T1 sequence: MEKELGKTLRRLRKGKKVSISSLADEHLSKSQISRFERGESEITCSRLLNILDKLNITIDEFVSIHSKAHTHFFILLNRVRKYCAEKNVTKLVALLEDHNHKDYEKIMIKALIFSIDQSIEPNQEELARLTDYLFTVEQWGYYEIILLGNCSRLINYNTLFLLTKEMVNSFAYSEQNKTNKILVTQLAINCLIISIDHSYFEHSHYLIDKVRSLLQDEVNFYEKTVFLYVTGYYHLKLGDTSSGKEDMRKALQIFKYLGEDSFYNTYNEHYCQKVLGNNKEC
The series can be described thus: competition.

Series [2] shares this test system. The series can be described thus: EMSA. A general note: In EMSA bound probe runs differently from free probe, usually more slowly.

On to “ATTAGTGACTTCTTTCATTGAAAATGATAGAATATAGGTGTATGGGAAACTTCCCAAAAATATTTAAGGAGATGTTTAGAAATGACTGCAACTAAACAACATAAAAAAGTTATCCTCGTTGGTGATGGTG (double strand) [PldhL probe]”, for which the binding result in series [1] and in series [2] was “no binding” throughout. For “CTAACTTTTTTTCCTTTACGTAATCTTCTTAGTGTTTTTCCTAATTCTTTTTCCATTTTTATTTAAAAGACCCTTTAAATCCATTATATAATACAAGTACAAAATAGAAAATCAGAAAGG (double strand) [Pshp without the motif probe]”, the binding result in series [2] (part of the binding motif deleted) is “no binding”. Consider “GCAATTTATTATTAATTTGTATGTTTAAAATTAAATAGTTGATATCTAAAACATGATATTTTTAAATTTTCCTTTAATATTATAAAGCATGATAGATAGTCATACTAACATTAAGATTTACAATGAGGTAATAGTATATT (double strand) [PfbsA probe]”, for which the binding entry in series [2] was “no binding”.
